Results: patent US20190062453A1 (Hoffmann-La Roche, published 2019)
Residue numbers refer to the chain shown, from its start.

T1: Recombinant human DcR2-Fc (human, UniProt Q9UBN6 56-211)
T1 construct: bought for the phage antibodies; also called huDcR2Fc; human DcR2 (TNFRSF10D); not shown: Fc part of the chimera
T1 sequence (looked up): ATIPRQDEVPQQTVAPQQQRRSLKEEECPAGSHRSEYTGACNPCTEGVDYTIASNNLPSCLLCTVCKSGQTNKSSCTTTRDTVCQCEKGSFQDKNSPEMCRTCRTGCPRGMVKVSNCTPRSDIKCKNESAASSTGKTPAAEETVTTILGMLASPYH

T2: Recombinant human OPG-Fc (human, UniProt O00300 22-194)
T2 construct: bought; also called rhuOPGFc; human Osteoprotegerin; Fc part of the bought chimera not given
T2 sequence (looked up): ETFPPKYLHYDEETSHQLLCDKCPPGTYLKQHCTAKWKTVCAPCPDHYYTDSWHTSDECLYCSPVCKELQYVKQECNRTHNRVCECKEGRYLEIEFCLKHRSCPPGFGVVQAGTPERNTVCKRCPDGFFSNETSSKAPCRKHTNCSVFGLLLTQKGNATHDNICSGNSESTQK

T3: Recombinant human DcR1-Fc (human, UniProt O14798 26-221)
T3 construct: bought; also called huDcR1Fc; human DcR1 (TNFRSF10C); Fc part of the bought chimera not given
T3 sequence (looked up): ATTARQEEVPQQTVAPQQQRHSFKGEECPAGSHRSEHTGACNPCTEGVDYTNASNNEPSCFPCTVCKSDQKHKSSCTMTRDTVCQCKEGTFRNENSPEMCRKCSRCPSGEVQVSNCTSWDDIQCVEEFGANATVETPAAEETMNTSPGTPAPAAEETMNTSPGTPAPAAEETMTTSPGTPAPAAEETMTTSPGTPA

B1: DR5TAA-0006 (antibody, V domains shown)
VH: QSLEESGGRLVTPGTPLTLTCTASGFSLSSNHMSWVRQAPGKGLEWIGYIYAGSGSAYYASWAKGRFTISRTSTTVDLKMTSLTTEDTATYFCAGDAGSSYWEFNLWGPGTLVTVSS
VL: LVMTQTPSSTSEPVGGTVTIKCQASQSIGSSLSWYQQKPGQPPKLLIYHASTLASGVPSRFSGSRSGIQTTLTISGVQCDDAATYYCLGVADARRDDGFAFGGGTEVVVKG
notes: rabbit IgG; also called 058; clone 058
B2: DR5TAA-0013 (antibody, V domains shown)
VH: B1 VH with S27T, L28I, N31Y, G55A, A57T, Y58W, A63V, R71K, G95R
VL: LVMTQTPSSTSEPVGGTVTIKCQASQSIGSSLSWYQQTPGQPPKLLIYTASSLASSVPKRFSGSRSGTQFTLTISGVQCADAATYYCLGIDDVRRDDGFAFGGGTEVVVKG
notes: rabbit IgG; also called 298; clone 298
B3: DR5TAA-0016 (antibody, V domains shown)
VH: QSLEESGGRLVKPDETLTLTCTVSGFSLNNYAMSWVRQAPGKGLEWIGMINKYGTKYYATWTKGRATISKTSTTLDLEITSPTTEDTATYFCARVRYAGDDYAEWLDVWGQGILVTVSS
VL: DIVMTQTASPVSAAVGGTVTINCQASQSISSSYVSWYQQKPGQPPKLLIYKASTLASGVPSRFSGSGSGTQLSLTIRGVQCDDAATYYCLYGYSDVSSSEYVFGGGTEVVVRG
B4: DR5TAA-0011 (antibody, V domains shown)
VH: QSVEESGGRLVTPGTPLTLTCTVSGFSISRYAMIWVRQAPGEGLEYIGFITSDSSAYYASWAKGRFTISKTSTTVDLKMTSPTTEDTATYFCARYTYSDGTDLWGPGTLVTVSS
VL: DIVMTQTPASVSEPVGGTVTIKCQASQSISTYLSWYQQKPGQPPKRLIYKASTLASGVPSRFKGSGSGTDFTLTIRDLECADAATYYCQPNSGIATYGAAFGGGTEVVVKG
notes: also called 174; clone 174
B5: DR5TAA-0010 (antibody, V domains shown)
VH: QSLEESGGRLVKPDETLTLTCTVSGFSLSSNAISWVRQAPGMGLEWIGIIGSSGYTYYASWAKGRFTVSKTSTTVDLEIASPTTEDTATYFCARGYSGASDYSFNLWGPGTLVTVSS
VL: AYDMTQTPDSVEVAVGGTVTIKCQASQTIGDALAWYQQKPGQRPNLLIYRTSTLASGVPSRFSGSGSGTHFTLTISGVECADAATYYCQQGATYNNVLNTFGGGTEVVVKG
notes: rabbit IgG; also called 481; clone 481
B6: DR5TAA-0019 (antibody, V domains shown)
VH: QSVEESGGRLVTPGTPLTLTCTVSGFSLSNYAMSWVRQAPGKGLEWIGIISSSGTTYYASWAKGRFTISKTSTTVDLKVTSPTTEDTATYFCARETYYGYSYAAGLWGPGTLVTVSS
VL: ALVMTQTPSSVSAAVGGTVTINCQASQNIYSNLAWFQQKPGQPPKLLIYETSKLASGVPSRFSGSGSGTEFTLTISDLECDDAATYYCQSSWHSISTDCAFGGGTEVVVKG
notes: rabbit IgG
B7: DR5TAA-0005 (antibody, V domains shown)
VH: QSLEESGGRLVTPGTPLTLTCTASGFSLSSAYMSWVRQAPGKGLEWIGYIYSGSGSTWYASWVKGRFTISKTSTTVDLKITSPTTEDTATYFCARGYSTMGDLWGPGTLVTVSS
VL: QVLTQTPSPVSAAVGGTVTINCQASQSVYNNRLAWYQQKPGQPPKLLIYLASTLASGVPSRFKGSGSGTQFTLTISDLQCDDAATYYCAGGYSGNINAFGGGTEVVVKG
notes: rabbit IgG; also called 039; clone 039
B8: 4G8 IgG (antibody, V domains shown)
VH: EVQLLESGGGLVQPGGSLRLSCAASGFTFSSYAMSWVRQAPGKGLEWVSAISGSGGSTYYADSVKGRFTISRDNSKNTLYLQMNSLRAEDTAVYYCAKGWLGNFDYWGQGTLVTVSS
VL: EIVLTQSPGTLSLSPGERATLSCRASQSVSRSYLAWYQQKPGQAPRLLIIGASTRATGIPDRFSGSGSGTDFTLTISRLEPEDFAVYYCQQGQVIPPTFGQGTKVEIK
notes: also called FAP (4G8) IgG molecule; parental 4G8 IgG
B9: 5E11 (antibody, V domains shown)
VH: not shown
VL: B8 VL with R31S, I50Y, T54S, Q93T, V94T, I95H, P97I
notes: Phage display Fab converted into hu IgG1, kappa light chain; also called clone 5E11
B10: 20F2 (antibody, IgG1, V domains shown)
VH: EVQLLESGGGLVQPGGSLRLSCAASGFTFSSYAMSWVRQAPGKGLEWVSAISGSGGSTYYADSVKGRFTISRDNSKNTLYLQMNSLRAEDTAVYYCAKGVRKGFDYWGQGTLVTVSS
VL: B8 VL with R31S, I50Y, T54S, Q93E, V94S, I95P
notes: hu IgG1; also called DR5 (20F2)
B11: 21H3 (antibody, IgG1, V domains shown)
VH: not shown
VL: B8 VL with R31S, I50Y, T54S, Q93S, V94Q, I95P, P97I
notes: hu IgG1
B12: 18F11 (antibody, IgG1, V domains shown)
VH: not shown
VL: B8 VL with R31S, I50Y, T54S, V94L, I95P, P97I
notes: hu IgG1
B13: 22E9 (antibody, IgG1, V domains shown)
VH: not shown
VL: B8 VL with R31S, I50Y, T54S, Q93S, V94N, I95Q, P97V
notes: hu IgG1

These binders were tested against T1, Recombinant human DcR2-Fc (assay: binding ELISA).

Binder	binding result
B1	no binding
B2	no binding
B3	no binding
B4	no binding
B5	no binding
B6	no binding
B7	no binding

The binders below were run against T2, Recombinant human OPG-Fc (assay: binding ELISA).

Binder	binding result
B1	no binding
B2	no binding
B3	no binding
B4	no binding
B5	no binding
B6	no binding
B7	no binding

Each binder was assayed against T4, Recombinant human DR4-Fc (human, UniProt O00220 109-239) (assay: binding ELISA).
T4 construct: bought; also called huDR4Fc; human DR4 (TNFRSF10A); Fc part of the bought chimera not given

Binder	binding result
B1	no binding
B2	no binding
B3	no binding
B4	no binding
B5	no binding
B6	no binding
B7	no binding

The binders below were run against T3, Recombinant human DcR1-Fc (assay: binding ELISA).

Binder	binding result
B1	no binding
B2	no binding
B3	no binding
B4	no binding
B5	no binding
B6	no binding
B7	no binding

These binders were tested against T5, murine DR5 ECD-AcTev-hu Fc-Avi (murine, UniProt Q9QZM4 53-153) (assay: binding ELISA).
T5 construct: range 53-153; also called mouse DR5

Binder	binding result
B1	no binding
B2	no binding
B3	no binding
B4	no binding
B5	no binding
B6	no binding
B7	no binding

Each binder was assayed against T6, human DR5 ECD-Avi-his (human, UniProt O14763 56-207) (assay: SPR, rabbit IgG captured by anti rabbit, monomeric DR5 injected).
T6 construct: also called recombinant human DR5 (monomeric His-Avi fusion protein); monomeric human DR5
Method: The sample and system buffer was PBS-T (10 mM phosphate buffered saline including 0.05% Tween20) pH 7.4. The flow cell was set to 25° C.—and the sample block set to 12° C.—and primed with running buffer twice.
The dissociation phase was monitored for up to 300 sec and triggered by switching from the sample solution to running buffer. The surface was regenerated by 60 sec washing with a 100 mM H3PO4 (phosphoric acid) solution at a flow rate of 30 μl/min. Bulk refractive index differences were corrected by subtracting the response obtained from a blank surface. Buffer injections are also subtracted (=double referencing). For calculation of KD and other kinetic parameters the Langmuir 1:1 model was used.

Binder	Kd [nM]
B1	5.92
B2	9.12
B3	1.45
B4	4.24
B5	15.9
B6	0.675
B7	13.3

Each binder was assayed against T7, human FAP on cells (human, UniProt Q12884 1-760) (assay: FACS on recombinant HEK293 cells expressing human FAP).
T7 construct: whole, on cells; also called human FAP expressed on recombinant HEK293 cells; FAP on GM05389 fibroblasts

Binder	binding result
B8	binds

What follows are binders tested against T8, Cynom. DR5 (ECD)-AcTev-Fc-Avi (cynomolgus) (assay: biochemical ELISA, biotinylated antigen on streptavidin plate).
T8 construct: also called cynomolgus DR5; cy DR5
Method: Antigen binding immunoassays were performed at room temperature on 384 well streptavidin coated microtiter plates (MicroCoat Biotechnologie GmbH) with PBS buffer supplemented with 0.05% Tween®-20 and 0.5% BSA (Roche Diagnostics GmbH). […] After 90 min incubation the plate was washed 6 times with PBST (phosphate buffered saline with 0.2% Tween®-20) and developed with BM Blue® HRP substrate solution (BM Blue®: 3,3′-5,5′-Tetramethylbenzidine, Roche Diagnostics GmbH) for 30 minutes at RT. Absorbance was measured at 370 nm. The blank value was defined without addition of supernatant.

Binder	EC50 [ng/mL]
B1	1.6
B2	2.1
B3	2.7
B4	4.3
B5	8.7
B6	2.2
B7	3.7

These binders were tested against T9, human DR5 (monomeric Fc fusion) (human, UniProt O14763 56-207, biotinylated at the Avi tag in the ELISA (the tag is not in the letters)) in the same assay as above.
T9 construct: biotinylated in the ELISA; also called ECD-AcTev-hu Fc knob-Avi; not shown: AcTev site, hu Fc knob and Avi part of the fusion chain, and the separate Fc-hole chain

Binder	EC50 [ng/mL]
B1	2
B2	2.1
B3	4
B4	2
B5	2.8
B6	3.5
B7	2.5

Each binder was assayed against T5, murine DR5 ECD-AcTev-hu Fc-Avi (assay: SPR, biotinylated DR5 on SA chip).

Binder	binding result
B9	no binding (tested: 500, 100 and 25 nM)
B10	no binding (tested: 500, 100 and 25 nM)
B11	no binding (tested: 500, 100 and 25 nM)
B12	no binding (tested: 500, 100 and 25 nM)
B13	no binding (tested: 500, 100 and 25 nM)

These binders were tested against T1, Recombinant human DcR2-Fc (assay: SPR, receptor-Fc on CM5 chip).

Binder	binding result
B9	no binding (tested: 500, 100 and 25 nM)
B10	no binding (tested: 500, 100 and 25 nM)
B11	no binding (tested: 500, 100 and 25 nM)
B12	no binding (tested: 500, 100 and 25 nM)
B13	no binding (tested: 500, 100 and 25 nM)

These binders were tested against T2, Recombinant human OPG-Fc (assay: SPR, receptor-Fc on CM5 chip).

Binder	binding result
B9	no binding (tested: 500, 100 and 25 nM)
B10	no binding (tested: 500, 100 and 25 nM)
B11	no binding (tested: 500, 100 and 25 nM)
B12	no binding (tested: 500, 100 and 25 nM)
B13	no binding (tested: 500, 100 and 25 nM)

The binders below were run against T4, Recombinant human DR4-Fc (assay: SPR, receptor-Fc on CM5 chip).

Binder	binding result
B9	no binding (tested: 500, 100 and 25 nM)
B10	no binding (tested: 500, 100 and 25 nM)
B11	no binding (tested: 500, 100 and 25 nM)
B12	no binding (tested: 500, 100 and 25 nM)
B13	no binding (tested: 500, 100 and 25 nM)

What follows are binders tested against T3, Recombinant human DcR1-Fc (assay: SPR, receptor-Fc on CM5 chip).

Binder	binding result
B9	no binding (tested: 500, 100 and 25 nM)
B10	no binding (tested: 500, 100 and 25 nM)
B11	no binding (tested: 500, 100 and 25 nM)
B12	no binding (tested: 500, 100 and 25 nM)
B13	no binding (tested: 500, 100 and 25 nM)
